According to paper doi:10.1101/2023.03.13.532366 (bioRxiv, 2023):
One block for each binder: values may come before it.

B6: mIL-12B (p40), subunit of mIL-12 in the cryo-EM complexes (mIL-12b-Casp3-AviTag-His6, tags cleaved) (natural protein, mouse, UniProt P43432 23-335, looked up)
chain: MWELEKDVYVVEVDWTPDAPGETVNLTCDTPEEDDITWTSDQRHGVIGSGKTLTITVKEFLDAGQYTCHKGGETLSHSHLLLHKKENGIWSTEILKNFKNKTFLKCEAPNYSGRFTCSWLVQRNMDLKFNIKSSSSSPDSRAVTCGMASLSAEKVTLDQRDYEKYSVSCQEDVTCPTAEETLPIELALEARQQNKYENYSTSFFIRDIIKPDPPKNLQMKPLKNSQVEVSWEYPDSWSTPHSYFSLKFFVRIQRKKEKMKETEEGCNQKGAFLVEKTSTEVQCKGGNVCVQAQDRYYNSSCSKWACVPCRVRS
B8: mIL-12Rβ1_(D1-D5)-Strep-II Tag (non pre-dimerized) (receptor, mouse, UniProt Q60837 20-565, looked up)
chain: QLGASGPGDGCCVEKTSFPEGASGSPLGPRNLSCYRVSKTDYECSWQYDGPEDNVSHVLWCCFVPPNHTHTGQERCRYFSSGPDRTVQFWEQDGIPVLSKVNFWVESRLGNRTMKSQKISQYLYNWTKTTPPLGHIKVSQSHRQLRMDWNVSEEAGAEVQFRRRMPTTNWTLGDCGPQVNSGSGVLGDIRGSMSESCLCPSENMAQEIQIRRRRRLSSGAPGGPWSDWSMPVCVPPEVLPQAKIKFLVEPLNQGGRRRLTMQGQSPQLAVPEGCRGRPGAQVKKHLVLVRMLSCRCQAQTSKTVPLGKKLNLSGATYDLNVLAKTRFGRSTIQKWHLPAQELTETRALNVSVGGNMTSMQWAAQAPGTTYCLEWQPWFQHRNHTHCTLIVPEEEDPAKMVTHSWSSKPTLEQEECYRITVFASKNPKNPMLWATVLSSYYFGGNASRAGTPRHVSVRNQTGDSVSVEWTASQLSTCPGVLTQYVVRCEAEDGAWESEWLVPPTKTQVTLDGLRSRVMYKVQVRADTARLPGAWSHPQRFSFEVQIS

Key:
[1] = target: hIL-12Rβ1_(D3-D5) (domains 3 to 5 of human IL-12 receptor β1) (human, UniProt P42701); assay: crystal structure
[2] = target: B6; assay: cryo-EM structure
[3] = target: T1, mIL-12Rβ2_(D1-D6)-Strep-II Tag (non pre-dimerized) (mouse, UniProt P97378 24-637); assay: cryo-EM structure
T1 sequence (looked up): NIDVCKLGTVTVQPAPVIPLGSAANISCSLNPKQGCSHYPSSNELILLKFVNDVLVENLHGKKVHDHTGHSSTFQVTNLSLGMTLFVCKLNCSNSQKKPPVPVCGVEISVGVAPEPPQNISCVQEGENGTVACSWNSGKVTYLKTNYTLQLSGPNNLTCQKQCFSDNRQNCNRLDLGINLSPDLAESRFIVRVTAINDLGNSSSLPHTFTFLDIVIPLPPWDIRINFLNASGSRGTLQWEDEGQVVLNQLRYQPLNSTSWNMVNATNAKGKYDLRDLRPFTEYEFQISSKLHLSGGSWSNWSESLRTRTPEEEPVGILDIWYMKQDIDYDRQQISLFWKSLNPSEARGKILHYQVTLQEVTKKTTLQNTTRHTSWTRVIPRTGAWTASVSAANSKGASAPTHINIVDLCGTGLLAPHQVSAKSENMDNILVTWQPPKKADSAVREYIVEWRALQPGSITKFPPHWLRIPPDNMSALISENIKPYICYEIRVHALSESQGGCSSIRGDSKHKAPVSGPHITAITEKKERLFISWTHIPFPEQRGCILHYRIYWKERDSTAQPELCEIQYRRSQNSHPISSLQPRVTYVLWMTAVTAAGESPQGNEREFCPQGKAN

[4] = target: T2, mIL-12B (p40), untagged, of the crystallised mIL-12 (mouse, UniProt P43432 23-335); assay: crystal structure
T2 sequence (looked up): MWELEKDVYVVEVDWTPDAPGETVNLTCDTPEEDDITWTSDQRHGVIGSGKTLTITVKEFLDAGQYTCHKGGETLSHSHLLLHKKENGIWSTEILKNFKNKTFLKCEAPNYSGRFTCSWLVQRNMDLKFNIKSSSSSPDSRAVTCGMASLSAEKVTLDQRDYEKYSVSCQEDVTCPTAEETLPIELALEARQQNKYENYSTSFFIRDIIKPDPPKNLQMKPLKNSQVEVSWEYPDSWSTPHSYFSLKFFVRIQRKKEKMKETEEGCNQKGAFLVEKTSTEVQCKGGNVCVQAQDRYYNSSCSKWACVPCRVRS

[5] = target: T3, hIL-12B (p40), subunit of hIL-23 in the cryo-EM complex (human, UniProt P29460 23-328); assay: cryo-EM structure
T3 sequence (looked up): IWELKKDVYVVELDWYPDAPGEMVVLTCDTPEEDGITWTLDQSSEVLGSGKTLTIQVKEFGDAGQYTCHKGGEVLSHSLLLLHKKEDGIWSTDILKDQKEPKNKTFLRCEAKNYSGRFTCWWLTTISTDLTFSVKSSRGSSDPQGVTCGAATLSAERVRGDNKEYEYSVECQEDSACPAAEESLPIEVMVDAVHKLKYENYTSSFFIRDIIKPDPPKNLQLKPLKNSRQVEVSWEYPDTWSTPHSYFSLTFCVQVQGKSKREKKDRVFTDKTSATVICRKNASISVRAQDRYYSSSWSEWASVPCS

[6] = target: hIL-23R-CaM (complete extracellular segment of human IL-23 receptor fused to calmodulin) (human, UniProt Q5VWK5 24-355; P0DP23 5-149); assay: cryo-EM structure
[7] = target: T4, hIL-12B (p40) of the crystallised hIL-23 (hIL-23a:hIL-12b co-transfection) (human, UniProt P29460 23-328); assay: crystal structure
T4 sequence (looked up): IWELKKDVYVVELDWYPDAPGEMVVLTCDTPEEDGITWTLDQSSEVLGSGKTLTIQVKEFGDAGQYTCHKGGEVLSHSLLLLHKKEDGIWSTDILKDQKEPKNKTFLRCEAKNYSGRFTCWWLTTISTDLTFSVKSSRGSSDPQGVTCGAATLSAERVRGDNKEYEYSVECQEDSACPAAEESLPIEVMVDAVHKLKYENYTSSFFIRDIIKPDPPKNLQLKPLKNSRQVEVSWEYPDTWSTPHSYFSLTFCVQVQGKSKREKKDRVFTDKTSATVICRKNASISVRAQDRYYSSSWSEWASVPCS

[8] = target: B8; assay: cryo-EM structure

B1: Fab4_(CrystalKappa) (Crystal Kappa form of Fab4) (Fab, V domains shown)
VH: QVQLVESGGGVVQPGRSLRLSCAASGFTFTSYGMSWVRQAPGKGLEWVAGISYDASDTEYADSVKGRFTISRDNSKNTLYLQMNSLRAEDTAVYYCARSPDYIIDYGFDYWGRGTLVTVSS
VL: AIQMTQSPSSLSASVGDRVTITCRASQGISSDLAWYQQKPGKAPKLLIYDASSLQSGVPSRFSGSGSGTDFTLTISSLQPEDFATYYCQQYWWYPFTFGQGTKVEIK
binding result [1]: binds

B2: mIL-12A (p35), untagged subunit of mIL-12 in the cryo-EM complexes (natural protein, mouse, UniProt P43431 23-215, looked up)
chain: RVIPVSGPARCLSQSRNLLKTTDDMVKTAREKLKHYSCTAEDIDHEDITRDQTSTLKTCLPLELHKNESCLATRETSSTTRGSCLPPQKTSLMMTLCLGSIYEDLKMYQTEFQAINAALQNHNHQQIILDKGMLVAIDELMQSLNHNGETLRQKPPVGEADPYRVKMKLCILLHAFSTRVVTINRVMGYLSSA
binding result [2]: binds
binding result [3]: binds

Binder: B6
binding result [8]: binds

Binder: B8
binding result [3]: binds

More lines, now with the values ahead:

binding result [4]: binds
B3: mIL-12A (p35) of the crystallised mIL-12 (mIL-12a-AviTag-His6, digested with Caspase-3) (natural protein, mouse, UniProt P43431 23-215, looked up)
chain: RVIPVSGPARCLSQSRNLLKTTDDMVKTAREKLKHYSCTAEDIDHEDITRDQTSTLKTCLPLELHKNESCLATRETSSTTRGSCLPPQKTSLMMTLCLGSIYEDLKMYQTEFQAINAALQNHNHQQIILDKGMLVAIDELMQSLNHNGETLRQKPPVGEADPYRVKMKLCILLHAFSTRVVTINRVMGYLSSA

binding result [5]: binds
binding result [6]: binds
B4: hIL-23A (p19), subunit of hIL-23 in the cryo-EM complex (natural protein, human, UniProt Q9NPF7 20-189, looked up)
chain: RAVPGGSSPAWTQCQQLSQKLCTLAWSAHPLVGHMDLREEGDEETTNDVPHIQCGDGCDPQGLRDNSQFCLQRIHQGLIFYEKLLGSDIFTGEPSLLPDSPVGQLHASLLGLSQLLQPEGHHWETQQIPSLSPSQPWQRLLLRFKILRSLQAFVAVAARVFAHGAATLSP

binding result [7]: binds
B5: hIL-23A (p19) of the crystallised hIL-23 (hIL-23a:hIL-12b co-transfection) (natural protein, human, UniProt Q9NPF7 20-189, looked up)
chain: RAVPGGSSPAWTQCQQLSQKLCTLAWSAHPLVGHMDLREEGDEETTNDVPHIQCGDGCDPQGLRDNSQFCLQRIHQGLIFYEKLLGSDIFTGEPSLLPDSPVGQLHASLLGLSQLLQPEGHHWETQQIPSLSPSQPWQRLLLRFKILRSLQAFVAVAARVFAHGAATLSP

binding result [8]: binds
binding result [3]: binds
B7: murine IL-12 (mIL-12), heterodimer of mIL-12A (p35) and mIL-12B (p40), as in the cryo-EM receptor complexes (complex, mouse)
chain 1: RVIPVSGPARCLSQSRNLLKTTDDMVKTAREKLKHYSCTAEDIDHEDITRDQTSTLKTCLPLELHKNESCLATRETSSTTRGSCLPPQKTSLMMTLCLGSIYEDLKMYQTEFQAINAALQNHNHQQIILDKGMLVAIDELMQSLNHNGETLRQKPPVGEADPYRVKMKLCILLHAFSTRVVTINRVMGYLSSA
chain 2: MWELEKDVYVVEVDWTPDAPGETVNLTCDTPEEDDITWTSDQRHGVIGSGKTLTITVKEFLDAGQYTCHKGGETLSHSHLLLHKKENGIWSTEILKNFKNKTFLKCEAPNYSGRFTCSWLVQRNMDLKFNIKSSSSSPDSRAVTCGMASLSAEKVTLDQRDYEKYSVSCQEDVTCPTAEETLPIELALEARQQNKYENYSTSFFIRDIIKPDPPKNLQMKPLKNSQVEVSWEYPDSWSTPHSYFSLKFFVRIQRKKEKMKETEEGCNQKGAFLVEKTSTEVQCKGGNVCVQAQDRYYNSSCSKWACVPCRVRS
